Residue numbers refer to the chain shown, from its start. Like-named read-outs stand apart in the source and are kept apart here.
B1: ShAb31 (MoB5-1D4) single domain VNAR (VNAR)
VNAR: ARVDQTPQTITKETGESLTINCVLRDSNCGVASTDWYRKKSGSTNEESISKGGRYVETVNSRSKSFSLRINDLTVEDSGTYRCNAWDRWETRQLNCDYDVYGGGTVVTVN
B2: ShAb01H06K (ShAb01Hole-06Knob) (bispecific antibody, V domains shown)
V domain 1: ARVDQTPRSVTKETGESLTINCVLRDSNCALSSTHWYRKKSGSTNEERILQGRRYVETVNSGSKSFSLRINDLRVEDSGTYRCKVYWGNSWQDKFCPGLGSYEYGDGTAVTVNS
V domain 2: ARVDQTPRSVTKETGESLTINCVLRDASYALGSTCWYRKKSGSTNEESISKGGRYVETVNSGSKSFSLRINDLTVEDGGTYRCGVGRGLGVGCDYPLCSYSYAACGDGTAVTVNS
B3: ShAb01-Foldon (ShAb01 VNAR-KESlinker-Foldon-3c-His8-Strep) (VNAR)
VNAR: B2 V domain 1 with S114K
B4: ShAb06H02K (ShAb06Hole-02Knob) (bispecific antibody, V domains shown)
V domain 1: B2 V domain 2
V domain 2: ARVDQTPQTITKETGESLTINCVLRDSNCALASTDWYRKKSGSTNEESISKGGRYVETVNSGSKSFSLRINDLTVEDSGTYRCNAWDSWETRQLKCDYDVYGGGTVVTVNS
B5: ShAb02-Foldon (ShAb02 VNAR-KESlinker-Foldon-3c-His8-Strep) (VNAR)
VNAR: B4 V domain 2 with S111K

What was measured:
[1] = target: SARS-CoV-2 RBD (pCoV08, RBD-His6) (SARS-CoV-2 (Wuhan-Hu-1), UniProt P0DTC2 331-527); experiment: Table 1, column Specificity
[2] = target: T1, SARS-CoV-2 WA-1 Spike on pseudovirions (SARS-CoV-2, UniProt P0DTC2 14-1255); experiment: cell-based or functional assay
SARS-CoV-2 NTD WA-1 = target: T2, SARS-CoV-2 NTD WA-1 (SARS-CoV-2, UniProt P0DTC2 14-303); experiment: BLI, ShAb-Fc on AHC probe, NTD analyte
T2 construct: domain: NTD

[3] = target: T1, SARS-CoV-2 WA-1 Spike on pseudovirions; experiment: cell-based or functional assay; remark: listed apart in the source

Binder	binding result [1]	pseudovirus neutralization IC50 [2] [µg/mL]	pseudovirus neutralization IC80 [2] [µg/mL]	Kd (SARS-CoV-2 NTD WA-1) [nM]	pseudovirus neutralization IC50 [3] [ng/mL]	koff (SARS-CoV-2 NTD WA-1) [s⁻¹]	kon (SARS-CoV-2 NTD WA-1) [M⁻¹ s⁻¹]
B1	binds						
B2		0.065	0.763	104			
B3		0.309	0.488		310		
B4		0.03	0.206	74.6		0.0085	114000
B5		0.289	1.77		< 20		

Reference: patent publication US20230331823A1 (HENRY M JACKSON FOUNDATION FOR THE ADVANCEMENT OF MILITARY …, published 2023)
